Assay [1] deals with T1, recombinant murine FcγRIV (CD16-2), biotinylated (murine, UniProt A0A0B4J1G0 21-203, biotinylated (site not stated)).
T1 construct: also called murine CD16-2; mouse CD16-2; not shown: biotinylation or purification tag (AviTag according to our card)
T1 sequence: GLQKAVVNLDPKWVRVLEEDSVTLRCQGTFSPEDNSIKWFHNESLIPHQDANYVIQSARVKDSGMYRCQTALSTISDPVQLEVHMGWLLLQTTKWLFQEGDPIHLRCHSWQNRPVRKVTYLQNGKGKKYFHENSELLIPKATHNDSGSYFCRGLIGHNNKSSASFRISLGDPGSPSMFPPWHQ
The assay is described as follows: SPR (Biacore), 37 °C, biotin-captured murine CD16-2 as ligand, steady-state plot; left-hand column, no heading on the sheet. How it is done:
FIG. 20: SPR interaction analysis of antibody binding to CD64 and murine CD16-2. […] Affinity parameters were evaluated for interaction with receptors using a Steady State Binding model.
(Surface plasmon resonance follows binding to a sensor surface in real time, without labels.)

Assay [2] addresses T2, human CD16A (158F) on transfected CHO cells (cAg_34) (human, UniProt P08637 17-254).
T2 construct: Exact cell-anchored construct not described; also called huCD16A
The assay is described as follows: flow cytometry on huCD16A-transfected CHO cells (cAg_34), one-site fit of MFI, experiment 1. As for the experimental part:
(§1) After washing in FACS buffer, cells were incubated in 50 μL FACS buffer without antibodies or with titrated antibodies starting at a concentration of 100 μg/mL followed by ten 5-fold serial dilutions for 30 min on ice in the dark. After washing twice, cells were incubated with APC-conjugated goat anti-human IgG (H+L)-APC (Dianova, cat. 109-136-088) for 30 min on ice in the dark. […] After washing, binding was measured by flow cytometry and mean fluorescence intensities (MFI) of cell samples were calculated and corrected for background staining using control cells stained with secondary antibodies only.
(§2) Equilibrium dissociation constants (KD) of antibody binding were calculated by plotting MFI values and fitting a non-linear regression model for one-site binding to hyperbolic dose-response curves using GraphPad Prism.
(In general: In flow cytometry, cells or beads pass a laser one at a time.)

For assay [3], the target named is T2, human CD16A (158F) on transfected CHO …. The assay is described as follows: flow cytometry on huCD16A-transfected CHO cells, anti-human IgG-APC detection. How it is done: To analyze binding of different antibody constructs to CHO cells transfected with human CD16A (cAg_34), relative to CD16 expression by flow cytometry, 1-2×10⁵ were resuspended in 100 μL FACS buffer (PBS (Invitrogen, cat.: 14190-169) containing 2% heat-inactivated FCS (Invitrogen, cat.: 10270-106), and 0.1% sodium azide (Roth, Karlsruhe, Germany, cat.: A1430.0100)) in round-bottom 96-well microtiter plates. After washing in FACS buffer, cells were incubated in 50 μL FACS buffer without antibodies or with titrated antibodies starting at a concentration of 100 μg/mL followed by ten 5-fold serial dilutions for 30 min on ice in the dark. After washing twice, cells were incubated with APC-conjugated goat anti-human IgG (H+L)-APC (Dianova, cat. 109-136-088) for 30 min on ice in the dark. […] After washing, binding was measured by flow cytometry and mean fluorescence intensities (MFI) of cell samples were calculated and corrected for background staining using control cells stained with secondary antibodies only.
as §2

Assay [4] concerns the target T3, CD123 on CD123+ cells (EOL-1 and other CD123+ tumour or patient cells) (human, UniProt P26951 19-378).
T3 construct: whole, on cells; also called interleukin-3 receptor
In words: flow cytometry on CD123+ EOL-1 cells, anti-human IgG-APC detection. As for the experimental part: To analyze binding of CD123xCD16A antibody constructs to CD123+ EOL-1 cells, CD123− A-431 cells and CD123− Karpas-299 cells by flow cytometry, 1×10⁵ cells were resuspended in 100 μL FACS buffer in round-bottom 96-well microtiter plates. After washing in FACS buffer, cells were incubated in 100 μL FACS buffer without antibodies or with titrated antibodies starting at a concentration of 100 μg/mL followed by eight 10-fold serial dilutions for 45 min on ice in the dark. After washing twice, cells were incubated with APC-conjugated goat anti-human IgG (H+L)-APC (1/200 dilution) for 30 min on ice in the dark. After washing, binding was measured by flow cytometry and mean fluorescence intensities (MFI) of cell samples were calculated and corrected for background staining using control cells stained with secondary antibodies only.

Assay [5] addresses T4, recombinant human FcγRIIB (CD32B), biotinylated (human, UniProt P31994 43-217, limits assumed, site-directed biotinylation at AviTag).
T4 construct: also called human CD32B
T4 sequence (looked up): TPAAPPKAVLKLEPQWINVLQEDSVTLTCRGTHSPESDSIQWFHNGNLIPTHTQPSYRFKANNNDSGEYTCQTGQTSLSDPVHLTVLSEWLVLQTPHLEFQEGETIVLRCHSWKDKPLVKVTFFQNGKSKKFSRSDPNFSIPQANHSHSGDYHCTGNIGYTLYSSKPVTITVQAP
In words: SPR (Biacore), 37 °C, biotin-captured human CD32B as ligand, steady-state plot; left-hand column, no heading on the sheet. How it is done: FIG. 21: SPR interaction analysis of antibody binding to CD32. […] Affinity parameters were evaluated for interaction with receptors using a Steady State Binding model.

For assay [6], the target named is T2, human CD16A (158F) on transfected CHO …. In words: flow cytometry on huCD16A-transfected CHO cells (cAg_34), one-site fit of MFI, mean of 3 experiments. How it is done: as §1, §2
The target is the same in assay [7]. The assay is described as follows: flow cytometry on huCD16A-transfected CHO cells (cAg_34), one-site fit of MFI, experiment 3. As for the experimental part: as §1, §2
Assay [8] concerns the target T5, recombinant murine neonatal Fc receptor (FcRn), biotinylated (murine, UniProt Q61559 22-297, limits assumed, site-directed biotinylation at AviTag).
T5 construct: also called murine FcRn
T5 sequence (looked up): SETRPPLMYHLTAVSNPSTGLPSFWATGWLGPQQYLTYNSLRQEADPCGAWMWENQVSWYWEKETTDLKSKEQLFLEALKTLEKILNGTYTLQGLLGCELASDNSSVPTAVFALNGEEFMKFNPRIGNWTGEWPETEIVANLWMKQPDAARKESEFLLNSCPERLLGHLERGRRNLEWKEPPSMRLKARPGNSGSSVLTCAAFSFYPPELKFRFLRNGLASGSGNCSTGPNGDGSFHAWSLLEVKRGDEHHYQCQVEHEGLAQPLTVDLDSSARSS
The assay is described as follows: SPR (Biacore), 37 °C, pH 6.0, biotin-captured murine FcRn as ligand, steady-state affinity fit. As for the experimental part: Affinity parameters were evaluated for interaction with human FcRn, cynomolgus FcRn or murine FcRn using a Steady State Binding model (D-F).

T2 sequence (P08637 17-254 limits assumed): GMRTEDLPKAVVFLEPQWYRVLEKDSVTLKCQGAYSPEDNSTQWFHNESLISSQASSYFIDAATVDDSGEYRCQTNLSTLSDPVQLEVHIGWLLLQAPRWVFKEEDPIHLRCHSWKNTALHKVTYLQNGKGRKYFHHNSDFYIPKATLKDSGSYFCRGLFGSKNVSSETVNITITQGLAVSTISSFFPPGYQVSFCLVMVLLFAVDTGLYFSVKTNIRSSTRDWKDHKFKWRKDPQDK
T3 sequence (P26951 19-378): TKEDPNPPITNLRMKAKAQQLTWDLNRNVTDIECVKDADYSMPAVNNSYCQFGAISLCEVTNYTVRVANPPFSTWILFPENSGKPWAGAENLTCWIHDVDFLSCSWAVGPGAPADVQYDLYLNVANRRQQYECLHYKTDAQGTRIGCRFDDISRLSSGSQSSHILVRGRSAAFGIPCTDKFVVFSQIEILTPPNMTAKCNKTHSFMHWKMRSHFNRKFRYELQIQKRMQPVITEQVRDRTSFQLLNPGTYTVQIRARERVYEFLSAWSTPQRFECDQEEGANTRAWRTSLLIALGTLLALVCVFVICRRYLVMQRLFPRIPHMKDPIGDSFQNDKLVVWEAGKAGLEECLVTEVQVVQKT

B1: scFv-IgAb_268 (CD123-1xCD16a1) (bispecific antibody)
heavy: QVQLQQSGAEVKKPGASVKVSCKASGYTFTDYYMKWVKQSHGKSLEWMGDIIPSNGATFYNQKFKGKATLTVDRSTSTAYMELSSLRSEDTAVYYCARSHLLRASWFAYWGQGTLVTVSSASTKGPSVFPLAPSSKSTSGGTAALGCLVKDYFPEPVTVSWNSGALTSGVHTFPAVLQSSGLYSLSSVVTVPSSSLGTQTYICNVNHKPSNTKVDKKVEPKSCDKTHTCPPCPAPEFEGGPSVFLFPPKPKDTLMISRTPEVTCVVVAVSHEDPEVKFNWYVDGVEVHNAKTKPREEQYNSTYRVVSVLTVLHQDWLNGKEYKCKVSNKALPAPIEKTISKAKGQPREPQVYTLPPSREEMTKNQVSLTCLVKGFYPSDIAVEWESNGQPENNYKTTPPVLDSDGSFFLYSKLTVDKSRWQQGNVFSCSVMHEALHNHYTQKSLSLSPGGGGGSGGGGSGGGGSGGGGSGGGGSGGGGSSYELTQPLSVSVALGQTARITCGGNNIGSKSVHWYQQKPGQAPVLVIYQDKKRPSGIPERFSGSNSGNTATLTISRAQAGDEADYYCQVWDDYIVLFGCGTKLTVLGGSGGSGGSGGSGGSGGSGGSQVQLVQSGAEVKKPGASVKVSCKASGYTFTNYYMQWVRQAPGQCLEWMGIINPSGGVTSYAQKFQGRVTMTRDTSTSTVYMELSSLRSEDTAVYYCARGSAYYYDFADYWGQGTLVTVSS
light: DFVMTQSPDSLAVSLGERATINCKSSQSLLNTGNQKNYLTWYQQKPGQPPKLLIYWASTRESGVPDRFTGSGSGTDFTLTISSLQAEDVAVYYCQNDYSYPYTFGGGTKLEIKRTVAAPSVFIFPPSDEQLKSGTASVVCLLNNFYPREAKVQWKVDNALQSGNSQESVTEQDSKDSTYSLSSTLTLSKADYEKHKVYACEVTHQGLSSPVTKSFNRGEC
notes: also called AFM28; CD123xCD16A scFv-IgAb_268
As a reminder, the Kd is the free concentration of one partner at which half of the binding sites on the other are occupied at equilibrium, for simple one-to-one binding. One may read the EC50 (read off the curve) as the concentration needed to bring the measured effect to its halfway point. High values mean a need for much substance, low ones an effect from little substance. For the molecule B1, the binding result in assay [1] and in assay [5] was “no binding” each time. Besides, the Kd in assay [2] is 17.7 nM; in assay [6] it was 16.3 nM; in assay [7] it was 23.5 nM; in assay [8], 72 nM. Moreover, the 50% effective concentration (EC50 (read off the curve)) is around 8 nM in assay [3] and around 0.4 nM in assay [4].

Source of the values: patent publication US20260070986A1 (AFFIMED, published 2026).
